In US20250326841A1 one finds EC50 and fold weaker EC50 than TIM3.18 on human TIM-3 data, which are given here for one substance.

In assay [1] the target is mouse TIM-3, membrane bound (mouse) (UniProt Q8VIM0). Briefly: binding to activated mouse T cells; method not described.
For assay [2] the target is unchanged. The assay can be described thus: binding to activated mouse T cells, compared with TIM3.18 binding to human TIM-3; method not described.

Chain of mouse TIM-3, membrane bound (mouse) (Q8VIM0 20-281): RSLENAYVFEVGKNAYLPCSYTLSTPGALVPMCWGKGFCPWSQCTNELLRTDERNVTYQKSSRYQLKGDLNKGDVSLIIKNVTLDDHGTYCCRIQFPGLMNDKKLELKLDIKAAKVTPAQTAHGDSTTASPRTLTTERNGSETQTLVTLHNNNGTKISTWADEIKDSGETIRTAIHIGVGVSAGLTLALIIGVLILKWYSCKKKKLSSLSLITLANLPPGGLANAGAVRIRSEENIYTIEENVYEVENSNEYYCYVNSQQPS

Broadly, the EC50 is the concentration that produces a half-maximal response. A low value points to an effect from little substance. “RMT3-23, rat anti-mouse TIM-3 antibody (Bio-X-Cell)” showed an EC50 in assay [1] of 1.7 nM. Also, the fold weaker EC50 than TIM3.18 on human TIM-3 in assay [2] came to 17 fold.
